Data from patent US20210198328A1, “MODULATED CAS-INHIBITORS” (Universität Heidelberg, priority 2017, published 2021).

Assays:
[1] = molecular target: dCas9-3xRFP (Streptococcus pyogenes) (UniProt Q99ZW2); experiment: cell-based or functional assay
dCas9-p300 = dCas9-p300 (UniProt Q99ZW2); experiment: cell-based or functional assay

Question: What does the source list for “CASANOVA (Acr-LOV variant 4; delta N64/Q65/E66, LOV2 inserted, no GS-linkers)”?
Answer: telomere labeling in U2OS nuclei, dark: cells labeling negative [1]: 60%; telomere labeling in U2OS nuclei, dark: more than 15 dots in the nucleus [1]: < 5%; telomere labeling in U2OS nuclei, light: more than 15 dots in the nucleus [1]: 40%; telomere labeling in U2OS nuclei, light: nuclei labeling positive [1]: 80%; IL1RN transcript levels by quantitative RT-PCR, light against dark (dCas9-p300): < 10 fold
